B1: HDV Ribozyme (parent)
chain: GGCCGGCAUGGUCCCAGCCUCCUCGCUGGCGCCGGCUGGGCAACAUUCCGAGGGGACCGUCCCCUCGGUAAUGGCGAAUGGGACCCA

The record followed here is the RNAGym collection of RNA variant scans (doi:10.7554/elife.80360).

In the series the parent is B1. Nature of the series: self-cleavage, relative activity (ratio to wild type); higher = more cleavage; co-transcriptional.
With C49A U72A, the self-cleavage was found to be 0.225. The figure for C49A U72G is 0.443; for C49A U72C it is 0.32. For C48U G59U the value was 1.06; for C49A A78C, 0.116. The figure for C48G C66G is 0.906; for C49A A70U it is 0.812. Turning to C49A G82C, the self-cleavage is 0.222.

Take C48U G55C: the self-cleavage amounted to 0.938.

Regarding U47C C64U, the self-cleavage was found to be 0.692. As for U47C U65G, the self-cleavage is 0.856.

For U47C U65C, the self-cleavage turned out to be 0.733. For C49A A71G the value was 0.81; for C49A C57U, 1.15. The figure for C48U U72G is 0.639. For C48A A87G the value was 0.955. On to C48A C57A, for which the self-cleavage is 0.978.

For C48A C57U, the self-cleavage is 0.76.

C48G U65C: the self-cleavage amounted to 0.931. For C48G U65A the value was 0.511; for C48G U65G, 0.504.

Turning to U47C C85A, the self-cleavage is 0.587. U47G G54A: the self-cleavage turned out to be 1.18. The figure for U47G G54U is 1.07; for C48U C85G it is 0.941; for C48A G53A it is 1.05. The figure for C48A G53U is 0.915; for C48U C57U it is 0.969. For C48U C57G the value was 0.798. For the variant C48U C64G, the self-cleavage amounted to 0.721.

For the variant U47G C66G, the self-cleavage stood at 0.831.

For U47G C66U, the self-cleavage was 1.23.

In the case of C48U C66G, the self-cleavage came to 0.658. Take C48U C66U: the self-cleavage was found to be 0.947. For C48U C66A the value was 0.923.

As for C48G G55A, the self-cleavage was 0.888. Consider C49G A71C, for which the self-cleavage was 0.302.

Regarding C49G A77U, the self-cleavage is 0.604. The figure for C49G A77G is 0.536. The figure for C48G C64A is 0.344. For C49G A78U the value was 0.138. On to C49G A78C, for which the self-cleavage was 0.262. The figure for C48U G53A is 0.888; for C48A A56G it is 1.2. In the case of C48G C63A, the self-cleavage was found to be 0.435. The figure for C48G C63U is 1.08. For U47G G50C the value was 0.831. For U47G G50A the value was 0.957. In the case of C49A G53A, the self-cleavage came out at 0.816. The figure for C49A G53C is 0.506; for C48G G52U it is 0.612; for U47C C86A it is 0.806.

With C48A C49G, the self-cleavage was determined as 1.01. The figure for C49A A56U is 1.1. On to C49A A56C, for which the self-cleavage stood at 1.05. For the variant C48A G82U, the self-cleavage came out at 0.496.

On to C48A G82A, for which the self-cleavage came out at 0.332. The figure for C49A C62G is 0.128. With U47G C86U, the self-cleavage amounted to 1.11. The figure for C48U A51G is 0.618. For C48U A51U the value was 1.07; for C48U A51C, 0.919; for U47C G67C, 0.59.

On to U47C G67U, for which the self-cleavage is 0.892. As to C48U G80U, the self-cleavage amounted to 0.194. For C48A G76A the value was 0.727. C48A G76C: the self-cleavage worked out at 1.05. For U47C C63G the value was 0.178; for C49A U60A, 0.745. The figure for C49A U60G is 1.33; for C49A G76U it is 1.01. For C49A G76A the value was 0.991; for C48A C84G, 0.727. As for C48G C58A, the self-cleavage was 1.14. For U47G G53C, the self-cleavage stood at 1.19.

Turning to U47G G53A, the self-cleavage was 1.15. For U47G C58A the value was 1.48; for U47C C75U, 0.0791; for U47C C75G, 0. For U47G A71C the value was 0.959; for U47G G80C, 0.192.

Consider U47G G80A, for which the self-cleavage was found to be 0.242. For U47G G80U the value was 0.163; for C48U U69G, 0.869. The figure for C49G A70C is 0.415. In the case of C49G A70U, the self-cleavage was determined as 0.429. The figure for C49A U65A is 0.751.

Regarding U47G U79G, the self-cleavage is 0.415. The figure for U47G U79A is 0.95. For C49A G54C, the self-cleavage came to 0.843. In the case of U47C G55C, the self-cleavage turned out to be 0.862.

In the case of U47C G55A, the self-cleavage came out at 0.923.

For C48A G67A, the self-cleavage came to 1.04.

Regarding C48A G67U, the self-cleavage stood at 1.03. The figure for C48G G53C is 0.776. The figure for C48G G53U is 0.893; for U47C G73C it is 0.374; for U47C G73U it is 0.225.

With U47C G73A, the self-cleavage stood at 0.464. The figure for U47G A87G is 1.16. For U47G A87C the value was 1.05. For the variant C48G G67U, the self-cleavage was found to be 0.972. The figure for C48G G67C is 1. The figure for C48U G54A is 0.813; for C48G G76U it is 0.997; for C48G G76A it is 1.12. As to C48G G76C, the self-cleavage stood at 0.867. As to U47C U72C, the self-cleavage worked out at 0.712. For C48A A71G, the self-cleavage was 0.791.

As for U47G A83U, the self-cleavage worked out at 0.525. Consider U47G A83G, for which the self-cleavage turned out to be 0.8. For C49G C57A the value was 1.19; for C48U A56U, 0.987; for C49A C75G, 0.128.

For the variant C49A C75U, the self-cleavage turned out to be 0.175. For U47G U60C the value was 0.767; for U47G U60G, 1.21; for C48A C86U, 0.923. As for C48A C86A, the self-cleavage is 0.831. Take C48A C63A: the self-cleavage came to 0.816. For the variant C48U C75U, the self-cleavage turned out to be 0.211.

For C48U C75G, the self-cleavage is 0.0852. The figure for C48A G59C is 1.15. The figure for C48A G59U is 1.11. The figure for C49G A83C is 0.403; for C48A G55U it is 0.933. On to C48A G55C, for which the self-cleavage was 1.06.

Consider U47G A78C, for which the self-cleavage was 0.185. As for U47G A78U, the self-cleavage was 0.196.

Take C48G C85G: the self-cleavage amounted to 0.875.

C48G C85A: the self-cleavage came to 0.8.

As to C49A A83C, the self-cleavage stood at 0.6. For U47G C48U the value was 1.02; for U47G C48A, 0.798. For C49A U79G the value was 0.665. For C49A U79C the value was 0.61; for C48U A70U, 1.07.

For the variant C48U A70G, the self-cleavage was found to be 0.997. The figure for C49A C85U is 0.811. The figure for C49A C85A is 1.13.

Turning to U47G G82U, the self-cleavage was 0.123. For the variant U47G G82A, the self-cleavage amounted to 0.59. As to U47G U72C, the self-cleavage stood at 0.554. Turning to U47G U72A, the self-cleavage turned out to be 0.831.

Consider C49A G67A, for which the self-cleavage was 1.27. For U47G A77U the value was 0.665; for C48A C58A, 0.831; for C48A C58G, 1.12. For U47C C62U the value was 1.16; for U47C C62G, 0.415.

On to C49A U69A, for which the self-cleavage was determined as 0.808.

With C48G U79G, the self-cleavage was 0.795. The figure for C48G U79C is 0.345; for C48U A87C it is 0.989. For C49A G52A the value was 0.739. For C49A G52U the value was 0.369; for C48G G59A, 0.92. In the case of C48G G59U, the self-cleavage was 1.07. The figure for C48U G52A is 0.931; for C49G A56U it is 0.96.

For the variant C49G A56G, the self-cleavage is 0.917. The figure for C48A C66G is 0.831; for C49G A87C it is 0.672; for C48U G82U it is 0.437. For the variant C48U G82A, the self-cleavage was found to be 0.532. The figure for U47C C66U is 0.725. The figure for C49A C61G is 0.816.
